Assay results reported in patent US20260078195A1.

What was measured:
[1] = biological target: human BCMA antigen (Cat #:BCA-H522y, ACRO) (human) (UniProt Q02223); assay: SPR (BIAcore 8K), antibody captured by anti-human Fc on CM5 chip, antigen as analyte
[2] = biological target: human CD3D&E protein (Cat #: CT038-H2508H, Sino biological) (human) (UniProt P04234); assay: as above
[3] = biological target: human CD3 complex on Jurkat cells (human) (UniProt P07766); assay: FACS on Jurkat cells, PE goat anti-human IgG (H+L) secondary antibody, MFI
Sequence of human CD3 complex on Jurkat cells (human) (P07766 23-207, chain 1 of 4): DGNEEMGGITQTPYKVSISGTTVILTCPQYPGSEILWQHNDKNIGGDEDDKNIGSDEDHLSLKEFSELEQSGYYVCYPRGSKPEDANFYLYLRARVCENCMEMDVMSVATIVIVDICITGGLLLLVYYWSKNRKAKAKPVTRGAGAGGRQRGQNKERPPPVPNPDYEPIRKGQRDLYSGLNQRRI
Sequence of human CD3 complex on Jurkat cells (human) (P04234 22-171, chain 2 of 4, further chain): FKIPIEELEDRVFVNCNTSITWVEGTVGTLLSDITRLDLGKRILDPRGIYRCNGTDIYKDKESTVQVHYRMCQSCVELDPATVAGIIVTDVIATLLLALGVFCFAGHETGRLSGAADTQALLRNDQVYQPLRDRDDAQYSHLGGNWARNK
Sequence of human CD3 complex on Jurkat cells (human) (P09693 23-182, chain 3 of 4, further chain): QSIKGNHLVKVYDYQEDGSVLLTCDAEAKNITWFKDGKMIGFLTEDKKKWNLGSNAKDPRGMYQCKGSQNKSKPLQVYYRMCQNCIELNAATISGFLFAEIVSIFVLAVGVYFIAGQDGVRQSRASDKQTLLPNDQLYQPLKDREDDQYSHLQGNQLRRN
Sequence of human CD3 complex on Jurkat cells (human) (P20963 22-164, chain 4 of 4, further chain): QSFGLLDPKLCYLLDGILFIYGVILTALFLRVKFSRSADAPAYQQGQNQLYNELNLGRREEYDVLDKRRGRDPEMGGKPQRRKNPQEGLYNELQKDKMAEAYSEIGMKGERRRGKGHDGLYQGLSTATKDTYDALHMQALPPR

[4] = biological target: human BCMA expressed on HEK293A cells (human) (UniProt Q02223); assay: FACS on HEK293A/human BCMA cells, PE goat anti-human IgG (H+L) secondary antibody, MFI
Sequence of human BCMA expressed on HEK293A cells (human) (Q02223 whole entry): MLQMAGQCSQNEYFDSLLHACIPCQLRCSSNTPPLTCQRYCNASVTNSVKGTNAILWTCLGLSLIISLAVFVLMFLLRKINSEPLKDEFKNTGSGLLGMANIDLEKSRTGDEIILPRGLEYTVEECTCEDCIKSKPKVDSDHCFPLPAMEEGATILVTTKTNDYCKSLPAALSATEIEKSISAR

[5] = biological target: mouse BCMA expressed on HEK293A cells (mouse) (UniProt O88472); assay: FACS on HEK293A/mouse BCMA cells, PE goat anti-human IgG (H+L) secondary antibody, MFI
Sequence of mouse BCMA expressed on HEK293A cells (mouse) (O88472 whole entry): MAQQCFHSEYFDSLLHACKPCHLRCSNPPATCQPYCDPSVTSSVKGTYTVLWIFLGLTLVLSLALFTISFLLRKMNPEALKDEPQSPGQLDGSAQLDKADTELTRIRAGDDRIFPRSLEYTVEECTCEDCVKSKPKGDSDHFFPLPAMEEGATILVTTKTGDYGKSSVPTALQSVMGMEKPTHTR

[6] = biological target: monkey BCMA expressed on HEK293A cells (monkey); assay: FACS on HEK293A/monkey BCMA cells, PE goat anti-human IgG (H+L) secondary antibody, MFI
Sequence of monkey BCMA expressed on HEK293A cells (monkey) (Q02223 other isoform, or with tags, fused parts or gaps): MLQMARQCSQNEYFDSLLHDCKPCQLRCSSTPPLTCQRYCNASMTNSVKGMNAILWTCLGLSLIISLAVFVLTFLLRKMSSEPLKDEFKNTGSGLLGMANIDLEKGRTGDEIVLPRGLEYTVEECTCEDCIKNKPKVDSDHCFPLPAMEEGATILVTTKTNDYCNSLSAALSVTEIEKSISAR

[7] = biological target: human GPRC5D antigen (Cat #:HM05P, Kactus Biosystems) (human) (UniProt Q9NZD1); assay: SPR (BIAcore 8K), antibody captured by anti-human Fc on CM5 chip, antigen as analyte
Sequence of human GPRC5D antigen (Cat #:HM05P, Kactus Biosystems) (human) (Q9NZD1 whole entry): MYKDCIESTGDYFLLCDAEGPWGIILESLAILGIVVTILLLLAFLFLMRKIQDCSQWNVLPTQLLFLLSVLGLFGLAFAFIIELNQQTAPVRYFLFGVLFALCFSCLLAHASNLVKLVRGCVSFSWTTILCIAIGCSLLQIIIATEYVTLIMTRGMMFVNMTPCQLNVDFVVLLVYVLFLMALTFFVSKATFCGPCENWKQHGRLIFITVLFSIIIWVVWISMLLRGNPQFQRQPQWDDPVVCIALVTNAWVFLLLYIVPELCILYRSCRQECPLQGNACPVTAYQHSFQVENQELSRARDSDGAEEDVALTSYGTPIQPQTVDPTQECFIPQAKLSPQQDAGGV

[8] = biological target: human GPRC5D expressed on HEK293T cells (human) (UniProt Q9NZD1); assay: FACS on HEK293T/human GPRC5D cells, PE goat anti-human IgG (H+L) secondary antibody, MFI
Sequence of human GPRC5D expressed on HEK293T cells (human) (Q9NZD1 whole entry): as above

Sequence of human BCMA antigen (Cat #:BCA-H522y, ACRO) (human) (Q02223 1-54 limits assumed): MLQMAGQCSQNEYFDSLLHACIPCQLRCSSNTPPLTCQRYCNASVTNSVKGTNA
Sequence of human CD3D&E protein (Cat #: CT038-H2508H, Sino biological) (human) (P04234 22-105, chain 1 of 2): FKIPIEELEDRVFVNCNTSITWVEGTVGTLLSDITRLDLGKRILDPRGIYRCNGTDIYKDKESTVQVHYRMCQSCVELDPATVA
Sequence of human CD3D&E protein (Cat #: CT038-H2508H, Sino biological) (human) (P07766 23-126, chain 2 of 2, further chain): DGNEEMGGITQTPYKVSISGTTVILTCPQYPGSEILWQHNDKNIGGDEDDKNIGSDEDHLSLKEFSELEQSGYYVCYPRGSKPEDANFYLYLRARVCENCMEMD

Kd [1] [nM] | koff [1] [s⁻¹] | kon [1] [M⁻¹ s⁻¹] | Kd [2] [nM] | koff [2] [s⁻¹] | kon [2] [M⁻¹ s⁻¹] | EC50 (read off the curve) [3] [µg/mL] | EC50 (read off the curve) [4] [µg/mL] | EC50 (read off the curve) [5] [µg/mL] | EC50 (read off the curve) [6] [µg/mL] | Kd [7] [nM] | EC50 (read off the curve) [8] [µg/mL] | Substance
0.996 | 0.00227 | 2.28e+06 | 41 | 0.00757 | 185000 | 0.7 | 0.07 | 0.2 | 0.1 | – | – | EM801 (bi-specific BCMA×CD3 antibody) (bispecific antibody)
– | – | – | – | – | – | – | – | – | – | 4.21 | 0.1 | JNJ-64407564 (bi-specific GPRC5D×CD3 antibody) (bispecific antibody)
